Assay results from publication PMC9482650, “Quantitative fragmentomics allow affinity mapping of interactomes” (Nature Communications, 2022).

T1: ARHGAP21, Q5T5U3
T1 sequence (Q5T5U3 45-169, limits assumed, looked up): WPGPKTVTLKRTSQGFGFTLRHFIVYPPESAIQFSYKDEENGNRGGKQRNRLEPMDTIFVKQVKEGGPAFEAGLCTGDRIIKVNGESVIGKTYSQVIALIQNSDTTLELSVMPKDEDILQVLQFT

T2: DLG3_2, Q92796
T2 sequence (Q92796 221-321, limits assumed, looked up): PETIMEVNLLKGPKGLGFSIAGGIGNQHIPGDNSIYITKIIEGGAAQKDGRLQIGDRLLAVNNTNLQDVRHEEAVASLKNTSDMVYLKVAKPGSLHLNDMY

T3: SNTG2, Q9NY99
T3 sequence (Q9NY99 68-166, limits assumed, looked up): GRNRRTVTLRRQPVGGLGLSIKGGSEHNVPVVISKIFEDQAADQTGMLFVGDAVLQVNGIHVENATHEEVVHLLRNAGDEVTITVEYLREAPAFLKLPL

T4: TJP3_3, O95049
T4 sequence (O95049 375-456, limits assumed, looked up): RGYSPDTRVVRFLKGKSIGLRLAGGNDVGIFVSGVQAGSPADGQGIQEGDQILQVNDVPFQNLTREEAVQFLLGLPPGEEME

T5: SIPA1L2, Q9P2F8
T5 sequence (Q9P2F8 945-1036, limits assumed, looked up): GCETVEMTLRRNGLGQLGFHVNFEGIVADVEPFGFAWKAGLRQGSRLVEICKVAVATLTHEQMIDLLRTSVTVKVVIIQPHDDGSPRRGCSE

T6: PTPN13_1, Q12923
T6 sequence (Q12923 1088-1188, limits assumed, looked up): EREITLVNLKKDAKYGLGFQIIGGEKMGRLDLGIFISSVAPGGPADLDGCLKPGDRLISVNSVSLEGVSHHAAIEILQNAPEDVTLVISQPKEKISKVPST

T7: DFNB31_1, Q9P202
T7 sequence (Q9P202 135-233, limits assumed, looked up): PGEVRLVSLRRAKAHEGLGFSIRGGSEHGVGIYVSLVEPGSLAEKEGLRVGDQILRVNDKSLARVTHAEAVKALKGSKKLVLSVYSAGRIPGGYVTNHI

T8: LRRC7, Q96NW7
T8 sequence (Q96NW7 1440-1537, limits assumed, looked up): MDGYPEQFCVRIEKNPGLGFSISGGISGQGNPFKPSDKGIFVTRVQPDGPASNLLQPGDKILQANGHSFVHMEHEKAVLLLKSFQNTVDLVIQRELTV

T9: MPP2, Q14168
T9 sequence (Q14168 180-250, limits assumed, looked up): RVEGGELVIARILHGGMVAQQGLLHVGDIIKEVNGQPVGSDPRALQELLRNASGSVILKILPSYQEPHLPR


What follows are binders tested against DLG4_2, P78352 (assay: holdup assay). Settings: plain residues with an end cap or a label only (N-terminal biotin on a linker: ahx).
DLG4_2, P78352, sequence (P78352 155-259): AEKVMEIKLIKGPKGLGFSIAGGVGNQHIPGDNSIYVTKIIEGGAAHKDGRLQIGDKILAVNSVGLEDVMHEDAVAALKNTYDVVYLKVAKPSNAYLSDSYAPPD
Parameters: key: below the threshold = too weak to quantify, mostly under pKd 3.1 to 4
Work on LSDPSVSTVV [GRIN1, Q05586;Q05586-2] yielded a pKd of 4.31.

What follows are binders tested against T1, ARHGAP21, Q5T5U3 (assay: holdup assay). Settings: plain residues with an end cap or a label only (N-terminal biotin on a linker: ahx).
Parameters: key: below the threshold = too weak to quantify, mostly under pKd 3.1 to 4
With LSDPSVSTVV [GRIN1, Q05586;Q05586-2] the pKd was “below the threshold”.

These binders were tested against T2, DLG3_2, Q92796 (assay: holdup assay). Settings: plain residues with an end cap or a label only (N-terminal biotin on a linker: ahx).
Parameters: key: below the threshold = too weak to quantify, mostly under pKd 3.1 to 4
In the case of LSDPSVSTVV [GRIN1, Q05586;Q05586-2], the pKd is reported as 4.58.

What follows are binders tested against T3, SNTG2, Q9NY99 (assay: holdup assay). Settings: plain residues with an end cap or a label only (N-terminal biotin on a linker: ahx).
Parameters: key: below the threshold = too weak to quantify, mostly under pKd 3.1 to 4
In the case of LSDPSVSTVV [GRIN1, Q05586;Q05586-2], the pKd is reported as “below the threshold”.

What follows are binders tested against T4, TJP3_3, O95049 (assay: holdup assay). Settings: plain residues with an end cap or a label only (N-terminal biotin on a linker: ahx).
Parameters: key: below the threshold = too weak to quantify, mostly under pKd 3.1 to 4
For LSDPSVSTVV [GRIN1, Q05586;Q05586-2], the pKd was “below the threshold”.

The binders below were run against T5, SIPA1L2, Q9P2F8 (assay: holdup assay). Settings: plain residues with an end cap or a label only (N-terminal biotin on a linker: ahx).
Parameters: key: below the threshold = too weak to quantify, mostly under pKd 3.1 to 4
In the case of LSDPSVSTVV [GRIN1, Q05586;Q05586-2], the pKd is reported as “below the threshold”.

Each binder was assayed against NHERF4_2, Q86UT5 (assay: holdup assay). Settings: plain residues with an end cap or a label only (N-terminal biotin on a linker: ahx).
NHERF4_2, Q86UT5, sequence (Q86UT5 220-308): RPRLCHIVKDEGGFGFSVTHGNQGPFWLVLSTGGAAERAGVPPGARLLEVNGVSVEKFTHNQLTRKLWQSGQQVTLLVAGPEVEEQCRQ
Parameters: key: below the threshold = too weak to quantify, mostly under pKd 3.1 to 4
LSDPSVSTVV [GRIN1, Q05586;Q05586-2] was tested, and the pKd was “below the threshold”.

Each binder was assayed against PTPN3, P26045 (assay: holdup assay). Settings: plain residues with an end cap or a label only (N-terminal biotin on a linker: ahx).
PTPN3, P26045, sequence (P26045 505-587): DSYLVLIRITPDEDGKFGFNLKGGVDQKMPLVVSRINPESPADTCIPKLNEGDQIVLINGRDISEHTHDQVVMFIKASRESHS
Parameters: key: below the threshold = too weak to quantify, mostly under pKd 3.1 to 4
In the case of LSDPSVSTVV [GRIN1, Q05586;Q05586-2], the pKd is reported as “below the threshold”.

These binders were tested against T6, PTPN13_1, Q12923 (assay: holdup assay). Settings: plain residues with an end cap or a label only (N-terminal biotin on a linker: ahx).
Parameters: key: below the threshold = too weak to quantify, mostly under pKd 3.1 to 4
With LSDPSVSTVV [GRIN1, Q05586;Q05586-2] the pKd was “below the threshold”.

These binders were tested against LNX1_2, Q8TBB1 (assay: holdup assay). Settings: plain residues with an end cap or a label only (N-terminal biotin on a linker: ahx).
LNX1_2, Q8TBB1, sequence (Q8TBB1 371-470): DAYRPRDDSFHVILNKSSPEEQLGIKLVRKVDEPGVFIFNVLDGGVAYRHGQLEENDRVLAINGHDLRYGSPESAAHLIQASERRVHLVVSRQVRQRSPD
Parameters: key: below the threshold = too weak to quantify, mostly under pKd 3.1 to 4
LSDPSVSTVV [GRIN1, Q05586;Q05586-2] was tested, and the pKd was “below the threshold”.

The binders below were run against SCRIB_3, Q14160 (assay: holdup assay). Settings: plain residues with an end cap or a label only (N-terminal biotin on a linker: ahx).
SCRIB_3, Q14160, sequence (Q14160 999-1103): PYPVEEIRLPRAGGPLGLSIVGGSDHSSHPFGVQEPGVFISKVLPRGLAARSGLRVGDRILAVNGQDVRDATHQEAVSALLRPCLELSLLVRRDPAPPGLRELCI
Parameters: key: below the threshold = too weak to quantify, mostly under pKd 3.1 to 4
In the case of LSDPSVSTVV [GRIN1, Q05586;Q05586-2], the pKd is reported as “below the threshold”.

The binders below were run against FRMPD3, Q5JV73 (assay: holdup assay). Settings: plain residues with an end cap or a label only (N-terminal biotin on a linker: ahx).
FRMPD3, Q5JV73, sequence (Q5JV73 12-100): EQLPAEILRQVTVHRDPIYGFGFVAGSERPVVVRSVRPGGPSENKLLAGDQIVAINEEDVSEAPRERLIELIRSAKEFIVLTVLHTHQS
Parameters: key: below the threshold = too weak to quantify, mostly under pKd 3.1 to 4
With LSDPSVSTVV [GRIN1, Q05586;Q05586-2] the pKd was “below the threshold”.

What follows are binders tested against T7, DFNB31_1, Q9P202 (assay: holdup assay). Settings: plain residues with an end cap or a label only (N-terminal biotin on a linker: ahx).
Parameters: key: below the threshold = too weak to quantify, mostly under pKd 3.1 to 4
With LSDPSVSTVV [GRIN1, Q05586;Q05586-2] the pKd was “below the threshold”.

What follows are binders tested against GRASP, Q7Z6J2 (assay: holdup assay). Settings: plain residues with an end cap or a label only (N-terminal biotin on a linker: ahx).
GRASP, Q7Z6J2, sequence (Q7Z6J2 96-193): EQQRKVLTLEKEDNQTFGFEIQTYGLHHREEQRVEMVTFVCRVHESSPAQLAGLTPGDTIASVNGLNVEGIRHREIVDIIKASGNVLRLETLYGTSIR
Parameters: key: below the threshold = too weak to quantify, mostly under pKd 3.1 to 4
With LSDPSVSTVV [GRIN1, Q05586;Q05586-2] the pKd was 3.94.

These binders were tested against SCRIB_1, Q14160 (assay: holdup assay). Settings: plain residues with an end cap or a label only (N-terminal biotin on a linker: ahx).
SCRIB_1, Q14160, sequence (Q14160 718-814): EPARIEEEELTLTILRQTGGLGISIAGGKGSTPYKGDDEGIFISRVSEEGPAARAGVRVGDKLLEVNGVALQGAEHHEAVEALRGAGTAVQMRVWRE
Parameters: key: below the threshold = too weak to quantify, mostly under pKd 3.1 to 4
For LSDPSVSTVV [GRIN1, Q05586;Q05586-2], the pKd was “below the threshold”.

What follows are binders tested against Inadl_6, Q8NI35 (assay: holdup assay). Settings: plain residues with an end cap or a label only (N-terminal biotin on a linker: ahx).
Inadl_6, Q8NI35, sequence (Q8NI35 1058-1167): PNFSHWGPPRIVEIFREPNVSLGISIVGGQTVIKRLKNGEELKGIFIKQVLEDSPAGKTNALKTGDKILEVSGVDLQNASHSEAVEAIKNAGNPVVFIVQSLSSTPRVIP
Parameters: key: below the threshold = too weak to quantify, mostly under pKd 3.1 to 4
LSDPSVSTVV [GRIN1, Q05586;Q05586-2] was tested, and the pKd was “below the threshold”.

The binders below were run against T8, LRRC7, Q96NW7 (assay: holdup assay). Settings: plain residues with an end cap or a label only (N-terminal biotin on a linker: ahx).
Parameters: key: below the threshold = too weak to quantify, mostly under pKd 3.1 to 4
With LSDPSVSTVV [GRIN1, Q05586;Q05586-2] the pKd was “below the threshold”.

The binders below were run against SCRIB_2, Q14160 (assay: holdup assay). Settings: plain residues with an end cap or a label only (N-terminal biotin on a linker: ahx).
SCRIB_2, Q14160, sequence (Q14160 857-960): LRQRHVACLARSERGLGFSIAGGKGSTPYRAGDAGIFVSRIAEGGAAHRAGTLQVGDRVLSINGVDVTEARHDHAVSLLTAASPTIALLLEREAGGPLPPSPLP
Parameters: key: below the threshold = too weak to quantify, mostly under pKd 3.1 to 4
In the case of LSDPSVSTVV [GRIN1, Q05586;Q05586-2], the pKd is reported as “below the threshold”.

What follows are binders tested against AHNAK1, Q09666 (assay: holdup assay). Settings: plain residues with an end cap or a label only (N-terminal biotin on a linker: ahx).
AHNAK1, Q09666, sequence (Q09666 4-100): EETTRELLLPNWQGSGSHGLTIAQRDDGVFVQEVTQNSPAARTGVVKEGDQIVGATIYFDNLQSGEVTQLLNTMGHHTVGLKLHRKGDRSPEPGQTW
Parameters: key: below the threshold = too weak to quantify, mostly under pKd 3.1 to 4
With LSDPSVSTVV [GRIN1, Q05586;Q05586-2] the pKd was “below the threshold”.

What follows are binders tested against T9, MPP2, Q14168 (assay: holdup assay). Settings: plain residues with an end cap or a label only (N-terminal biotin on a linker: ahx).
Parameters: key: below the threshold = too weak to quantify, mostly under pKd 3.1 to 4
In the case of LSDPSVSTVV [GRIN1, Q05586;Q05586-2], the pKd is reported as “below the threshold”.

Each binder was assayed against NHERF2_2, Q15599 (assay: holdup assay). Settings: plain residues with an end cap or a label only (N-terminal biotin on a linker: ahx).
NHERF2_2, Q15599, sequence (Q15599 142-238): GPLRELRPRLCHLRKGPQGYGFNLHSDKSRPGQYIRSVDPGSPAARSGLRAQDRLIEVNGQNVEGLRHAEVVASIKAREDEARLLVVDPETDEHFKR
Parameters: key: below the threshold = too weak to quantify, mostly under pKd 3.1 to 4
For LSDPSVSTVV [GRIN1, Q05586;Q05586-2], the pKd was “below the threshold”.

What follows are binders tested against PDZRN4_1, Q6ZMN7 (assay: holdup assay). Settings: plain residues with an end cap or a label only (N-terminal biotin on a linker: ahx).
PDZRN4_1, Q6ZMN7, sequence (Q6ZMN7 213-318): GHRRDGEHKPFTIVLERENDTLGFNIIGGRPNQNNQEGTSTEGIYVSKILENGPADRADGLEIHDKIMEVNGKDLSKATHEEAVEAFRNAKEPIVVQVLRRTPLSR
Parameters: key: below the threshold = too weak to quantify, mostly under pKd 3.1 to 4
LSDPSVSTVV [GRIN1, Q05586;Q05586-2] was tested, and the pKd was “below the threshold”.
